Source: US20180362631A1 (Eli Lilly, published 2018)
Substitutions are numbered along the chain they refer to.

Assays:
human CXCL1 (Gro alpha) [1] = target: T1, human CXCL1 (Gro alpha) (human, UniProt P09341 35-107); assay: cell-based or functional assay
T1 sequence: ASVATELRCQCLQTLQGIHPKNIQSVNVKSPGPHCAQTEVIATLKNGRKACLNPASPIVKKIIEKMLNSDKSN

human CXCL8 (IL-8) [2] = target: T2, human CXCL8 (IL-8) (human, UniProt P10145 28-99); assay: cell-based or functional assay
T2 sequence: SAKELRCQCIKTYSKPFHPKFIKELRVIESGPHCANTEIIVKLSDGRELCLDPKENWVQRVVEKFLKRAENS

[3] = target: T3, human CXCL8 point mutant L49A (human, UniProt P10145 28-99, limits assumed); assay: cell-based or functional assay
human CXCL8 (IL-8) [4] = target: T2, human CXCL8 (IL-8); assay: cell-based or functional assay; remark: listed apart in the source
[5] = target: human CXCL8 point mutant R6A (human, UniProt P10145 28-99, limits assumed); assay: SPR (Biacore 2000), antibody captured on Protein A
human CXCL1 (Gro alpha) [6] = target: T1, human CXCL1 (Gro alpha); assay: SPR (Biacore 2000), antibody captured on Protein A, chemokine as analyte, 25 C
Experimental: (§1) Biacore 2000 instrument and Biacore 2000 Evaluation Software Version 4.1 are used for surface plasmon resonance analysis. A […] chip is prepared using manufacturer's EDC/NHS amine coupling method. Briefly, the surfaces of all four flow cells are activated by injecting a 1:1 mixture of EDC/NHS for 7 minutes at 10 μL/min. Protein A is diluted to 100 μg/mL in 10 mM acetate, pH 4.5 buffer, and immobilized to achieve approximately 10,000 RU onto all 4 flow cells by 7-minute injection at a flow rate of 10 μL/minute. Unreacted sites are blocked with a 7-minute injection of ethanolamine at 10 μL/minute. Two injections of glycine (pH 1.5) for 30 seconds at 10 μL/minute are used to remove any non-covalently associated protein. Running buffer is HBS-EP+.
(§2) Antibody 1 or Antibody 2 is diluted to 2 μg/mL in running buffer, and approximately 400-600 RU is captured in flow cell (Fc). Ligands are diluted from 100 μg/mL to 50 nM in running buffer and then two-fold serially diluted in running buffer to 3.125 nM. Duplicate injections of each ligand concentration are injected at 100 μL/min for 150 seconds followed by a dissociation phase. The dissociation phase is 1800 seconds for all ligands. Regeneration is performed by injecting 10 mM glycine (pH 1.5) for 60 seconds at […] over all flow cells. Reference-subtracted data is collected as Fc2-Fc1, Fc3-Fc1, and Fc4-Fc1. The measurements are obtained at 25° C. The on-rate (kₒₙ) and off-rate (koff) for each ligand are evaluated using a “1:1 (mass transfer) Binding” binding model. The affinity […] is calculated from the binding kinetics according to the relationship: KD=koff/kₒₙ.

human CXCL2 (Gro beta) = target: T4, human CXCL2 (Gro beta) (human, UniProt P19875 35-107); assay: as above
T4 construct: also called human Gro-beta
T4 sequence: T1 sequence with S2P, V3L, P20L, N27K, R48Q, I58M, N68K, S69N, D70G
Experimental: as §1, §2

human CXCL3 (Gro gamma) = target: T5, human CXCL3 (Gro gamma) (human, UniProt P19876 35-107); assay: as above
T5 construct: also called human Gro-gamma
T5 sequence: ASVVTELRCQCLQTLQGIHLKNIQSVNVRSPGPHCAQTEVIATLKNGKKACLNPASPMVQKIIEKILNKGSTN
Experimental: as §1, §2

human CXCL5 (ENA-78) = target: T6, human CXCL5 (ENA-78) (human, UniProt P42830 41-114); assay: as above
T6 construct: also called human ENA-78
T6 sequence: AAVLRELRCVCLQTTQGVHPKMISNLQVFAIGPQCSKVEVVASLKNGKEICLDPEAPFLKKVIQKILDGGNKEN
Experimental: as §1, §2

human CXCL6 (GCP-2) = target: T7, human CXCL6 (GCP-2) (human, UniProt P80162 40-114); assay: as above
T7 construct: also called human GCP-2
T7 sequence: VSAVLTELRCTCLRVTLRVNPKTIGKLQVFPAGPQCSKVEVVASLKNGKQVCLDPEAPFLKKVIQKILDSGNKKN
Experimental: as §1, §2

human CXCL7 (NAP-2) = target: T8, human CXCL7 (NAP-2) (human, UniProt P02775 59-128); assay: as above
T8 construct: also called human NAP-2
T8 sequence: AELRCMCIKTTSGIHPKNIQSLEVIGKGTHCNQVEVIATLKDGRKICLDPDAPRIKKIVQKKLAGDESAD
Experimental: as §1, §2

human CXCL8 (IL-8) [7] = target: T2, human CXCL8 (IL-8); assay: as above
Experimental: as §1, §2

[8] = target: human CXCL8 point mutant I10A (human, UniProt P10145 28-99, limits assumed); assay: SPR (Biacore 2000), antibody captured on Protein A, CXCL8 variant as analyte, 25 C
Experimental: (§3) Binding kinetics are tested on a Biacore 2000 instrument with Biacore 2000 Evaluation Software Version 4.1 as described above.
(§4) The on-rate (kₒₙ) and off-rate (koff) for each ligand are evaluated using a “1:1 (mass transfer) Binding” binding model. The affinity (KD) is calculated from the binding kinetics according to the relationship: KD=koff/kₒₙ.

[9] = target: human CXCL8 point mutant A35P (human, UniProt P10145 28-99, limits assumed); assay: as above
Experimental: as §3, §4

[10] = target: human CXCL8 point mutant I40A (human, UniProt P10145 28-99, limits assumed); assay: as above
Experimental: as §3, §4

[11] = target: T3, human CXCL8 point mutant L49A; assay: as above
Experimental: as §3, §4

human CXCL8 (IL-8) [12] = target: T2, human CXCL8 (IL-8); assay: as above
Experimental: as §3, §4

B1: Antibody 1 (antibody, human IgG4 S228P, kappa, V domains shown)
VH: QVQLVQSGAEVKKPGASVKVSCKASGYEFTSYWIHWVRQAPGQGLEWMGNISPNSGSANYNEKFKSRVTMTRDTSTSTVYMELSSLRSEDTAVYYCAREGPYSYYPSREYYGSDLWGQGTLVTVSS
VL: EIVLTQSPATLSLSPGERATLSCRASQSISNNLHWYQQKPGQAPRLLIYYTSRSVSGIPARFSGSGSGTDFTLTISSLEPEDFAVYYCGQNNEWPEVFGGGTKVEIKR
notes: Full-length IgG4 antibody expressed in NS0 cells
Human CXCL1 (Gro alpha) [1]
  IC50, chemotaxis of primary human neutrophils, CXCL1 at 5 nM: 18.5 nM
  IC50, chemotaxis of primary human neutrophils, CXCL1 at 20 nM: 40.3 nM
Human CXCL8 (IL-8) [2]
  IC50, chemotaxis of primary human neutrophils, CXCL8 at 5 nM: 26.4 nM
  IC50, chemotaxis of primary human neutrophils, CXCL8 at 10 nM: 43.7 nM
[3]
  IC50 (U937 FLIPR neutralization): 1.5 µg/mL
Human CXCL8 (IL-8) [4]
  IC50 (U937 FLIPR neutralization): 0.9 µg/mL
[5]
  binding result: no binding
Human CXCL1 (Gro alpha) [6]
  Kd: 0.113 nM
  koff: 0.000105 s⁻¹
  kon: 930000 M⁻¹ s⁻¹
Human CXCL2 (Gro beta)
  Kd: 0.171 nM
  koff: 0.000131 s⁻¹
  kon: 773000 M⁻¹ s⁻¹
Human CXCL3 (Gro gamma)
  Kd: 0.172 nM
  koff: 0.000123 s⁻¹
  kon: 716000 M⁻¹ s⁻¹
Human CXCL5 (ENA-78)
  Kd: 0.226 nM
  koff: 0.000122 s⁻¹
  kon: 543000 M⁻¹ s⁻¹
Human CXCL6 (GCP-2)
  Kd: 0.818 nM
  koff: 0.000578 s⁻¹
  kon: 707000 M⁻¹ s⁻¹
Human CXCL7 (NAP-2)
  Kd: 0.181 nM
  koff: 0.000161 s⁻¹
  kon: 900000 M⁻¹ s⁻¹
Human CXCL8 (IL-8) [7]
  Kd: 0.384 nM
  koff: 0.00013 s⁻¹
  kon: 339000 M⁻¹ s⁻¹
[8]
  Kd: 1.26 nM
  koff: 0.000344 s⁻¹
  kon: 277000 M⁻¹ s⁻¹
[9]
  Kd: 4.74 nM
  koff: 0.00497 s⁻¹
  kon: 1.06e+06 M⁻¹ s⁻¹
[10]
  Kd: 27.1 nM
  koff: 0.000424 s⁻¹
  kon: 16100 M⁻¹ s⁻¹
[11]
  Kd: 3.83 nM
  koff: 0.000544 s⁻¹
  kon: 143000 M⁻¹ s⁻¹
Human CXCL8 (IL-8) [12]
  Kd: 0.236 nM
  koff: 0.000441 s⁻¹
  kon: 3.03e+06 M⁻¹ s⁻¹

B2: Antibody 2 (antibody, human IgG4 S228P, kappa, V domains shown)
VH: B1 VH with E109Q
VL: B1 VL
notes: as for B1
Human CXCL1 (Gro alpha) [6]
  Kd: 0.243 nM
  koff: 0.000153 s⁻¹
  kon: 628000 M⁻¹ s⁻¹
Human CXCL2 (Gro beta)
  Kd: 0.18 nM
  koff: 2.05e-05 s⁻¹
  kon: 114000 M⁻¹ s⁻¹
Human CXCL3 (Gro gamma)
  Kd: 0.379 nM
  koff: 0.000176 s⁻¹
  kon: 465000 M⁻¹ s⁻¹
Human CXCL5 (ENA-78)
  Kd: 0.354 nM
  koff: 0.000151 s⁻¹
  kon: 427000 M⁻¹ s⁻¹
Human CXCL6 (GCP-2)
  Kd: 0.849 nM
  koff: 0.000611 s⁻¹
  kon: 719000 M⁻¹ s⁻¹
Human CXCL7 (NAP-2)
  Kd: 0.418 nM
  koff: 0.000218 s⁻¹
  kon: 521000 M⁻¹ s⁻¹
Human CXCL8 (IL-8) [7]
  Kd: 0.473 nM
  koff: 0.000124 s⁻¹
  kon: 261000 M⁻¹ s⁻¹
